Laboratory results published in US20240261333A1, “NOVEL TARGETS FOR ENHANCING ANTI-TUMOR IMMUNITY” (THE BROAD INSTITUTE, INC., priority 2021, published 2024).

T1: B3GNT2 (Homo sapiens, UniProt Q9NY97)
T1 construct: The respective ORFs of candidate genes [CD274 (NM_014143), MCL1 (NM_021960), JUNB (NM_002229), and B3GNT2 (NM_006577)] were synthesized; expressed in transfected cells; host or cells: A375 melanoma cells (lentiviral ORF overexpression)
T1 sequence (Q9NY97 1-397): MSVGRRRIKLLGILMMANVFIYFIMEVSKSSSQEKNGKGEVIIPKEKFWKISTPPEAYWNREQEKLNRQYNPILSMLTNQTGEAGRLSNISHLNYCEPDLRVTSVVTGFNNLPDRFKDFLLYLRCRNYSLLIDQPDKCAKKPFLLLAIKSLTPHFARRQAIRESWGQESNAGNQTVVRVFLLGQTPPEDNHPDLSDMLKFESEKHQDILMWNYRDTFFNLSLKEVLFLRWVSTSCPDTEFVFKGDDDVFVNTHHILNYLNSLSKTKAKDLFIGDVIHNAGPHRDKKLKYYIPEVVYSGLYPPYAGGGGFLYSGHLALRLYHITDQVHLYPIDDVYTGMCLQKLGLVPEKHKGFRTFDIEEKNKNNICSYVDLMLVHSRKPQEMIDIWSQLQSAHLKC


Target: T1, B3GNT2
Assay: Co-IP of FLAG-tagged B3GNT2 followed by mass spectrometry
Type: cell-based
Set-up: C-term IgG / C-term flag: unit not given here
How it was run: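 FLAG-tagged B3GNT2 immunoprecipitated from cell lysate (HEPES, 1% Triton X-100, 150 mM NaCl) with anti-FLAG versus […], overnight at 4° C, then captured on Protein A/G magnetic beads for 4 h. Two biological replicates per condition. Peptides fractionated and analyzed by nano-LC on an Orbitrap Elite in data-dependent mode.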

[1] = Co-IP followed by mass spectrometry of B3GNT2, C-term tag, FLAG pull-down
[2] = Co-IP followed by mass spectrometry of B3GNT2, C-term tag, IgG pull-down
[3] = Co-IP followed by mass spectrometry of B3GNT2, N-term tag, FLAG pull-down
[4] = Co-IP followed by mass spectrometry of B3GNT2, N-term tag, IgG pull-down

| Molecule | C-term flag [1] | C-term IgG [2] | N-term FLAG [3] | N-term IgG [4] | C-term flag (Co-IP with FLAG antibody, C-terminally FLAG-tagged B3GNT2, mass spectrometry count, unit not given) | N-term FLAG (Co-IP with FLAG antibody, N-terminally FLAG-tagged B3GNT2, mass spectrometry count, unit not given) | C-term IgG (Co-IP with IgG control antibody, C-terminally FLAG-tagged B3GNT2, mass spectrometry count, unit not given) | N-term IgG (Co-IP with IgG control antibody, N-terminally FLAG-tagged B3GNT2, mass spectrometry count, unit not given) |
| --- | --- | --- | --- | --- | --- | --- | --- | --- |
| PUF60 (protein) MATATIALQVNGQQGGGSEPAAAAAVVAAGDKWKPPQGTDSIKMENGQSTAAKLGLPPLTPEQQEALQKAKKYAMEQSIKSVLVKQTIAHQQQQLTNLQMAAVTMGFGDPLSPLQSMAAQRQRALAIMCRVYVGSIYYELGEDTIRQAFAPFGPIKSIDMSWDSVTMKHKGFAFVEYEVPEAAQLALEQMNSVMLGGRNIKVGRPSNIGQAQPIIDQLAEEARAFNRIYVASVHQDLSDDDIKSVFEAFGKIKSCTLARDPTTGKHKGYGFIEYEKAQSSQDAVSSMNLFDLGGQYLRVGKAVTPPMPLLTPATPGGLPPAAAVAAAAATAKITAQEAVAGAAVLGTLGTPGLVSPALTLAQPLGTLPQAVMAAQAPGVITGVTPARPPIPVTIPSVGVVNPILASPPTLGLLEPKKEKEEEELFPESERPEMLSEQEHMSISGSSARHMVMQKLLRKQESTVMVLRNMVDPKDIDDDLEGEVTEECGKFGAVNRVIIYQEKQGEEEDAEIIVKIFVEFSIASETHKAIQALNGRWFAGRKVVAEVYDQERFDNSDLSA | 6 | 5 | 6 | 5 |  |  |  |  |
| TM9SF1 (protein) PGVEGVTHYKAGDPVILYVNKVGPYHNPQETYHYYQLPVCCPEKIRHKSLSLGEVLDGDRMAESLYEIRFRENVEKRILCHMQLSSAQVEQLRQAIEELYYFEFVVDDLPIRGFVGYMEESGFLPHSHKIGLWTHLDFHLEFHGDRIIFANVSVRDVKPHSLDGLRPDEFLGLTHTYSVRWSETSVERRSDRRRGDDGGFFPRTLEIHWLSIINSMVLVFLLVGFVAVILMRVLRNDLARYNLDEETTSAGSGDDFDQGDNGWKIIHTDVFRFPPYRGLLCAVLGVGAQFLALGTGIIVMALLGMFNVHRHGAINSAAILLYALTCCISGYVSSHFYRQIGGERWVWNIILTTSLFSVPFFLTWSVVNSVHWANGSTQALPATTILLLLTVWLLVGFPLTVIGGIFGKNNASPFDAPCRTKNIAREIPPQPWYKSTVIHMTVGGFLPFRYPPFIPWLLLSGS | 4 | 0 | 0 | 0 |  |  |  |  |
| RBM14 (protein) MKIFVGNVDGADTTPEELAALFAPYGTVMSCAVMKQFAFVHMRENAGALRAIEALHGHELRPGRALVVEMSRPRPLNTWKIFVGNVSAACTSQELRSLFERRGRVIECDVVKDYAFVHMEKEADAKAAIAQLNGKEVKGKRINVELSTKGQKKGPGLAVQSGDKTKKPGAGDTAFPGTGGFSATFDYQQAFGNSTGGFDGQARQPTPPFFGRDRSPLRRSPPRASYVAPLTAQPATYRAQPSVSLGAAYRAQPSASLGVGYRTQPMTAQAASYRAQPSVSLGAPYRGQLASPSSQSAAASSLGPYGGAQPSASALSSYGGQAAAASSLNSYGAQGSSLASYGNQPSSYGAQAASSYGVRAAASSYNTQGAASSLGSYGAQAASYGAQSAASSLAYGAQAASYNAQPSASYNAQSAPYAAQQAASYSSQPAAYVAQPATAAAYASQPAAYAAQATTPMAGSYGAQPVVQTQLNSYGAQASMGLSGSYGAQSAAAATGSYGAAAAYGAQPSATLAAPYRTQSSASLAASYAAQQHPQAAASYRGQPGNAYDGAGQPSAAYLSMSQGAVANANSTPPPYERTRLSPPRASYDDPYKKAVAMSKRYGSDRRLAELSDYRRLSESQLSFRRSPTKSSLDYRRLPDAHSDYARYSGSYNDYLRAAQMHSGYQRRM | 2 | 0 | 3 | 4 |  |  |  |  |
| SLC25A6 (protein) MTEQAISFAKDFLAGGIAAAISKTAVAPIERVKLLLQVQHASKQIAADKQYKGIVDCIVRIPKEQGVLSFWRGNLANVIRYFPTQALNFAFKDKYKQIFLGGVDKHTQFWRYFAGNLASGGAAGATSLCFVYPLDFARTRLAADVGKSGTEREFRGLGDCLVKITKSDGIRGLYQGFSVSVQGIIIYRAAYFGVYDTAKGMLPDPKNTHIVVSWMIAQTVTAVAGVVSYPFDTVRRRMMMQSGRKGADIMYTGTVDCWRKIFRDEGGKAFFKGAWSNVLRGMGGAFVLVLYDELKKVI |  |  |  |  | 19 | 15 | 0 | 0 |
| CAT (protein) ADSRDPASDQMQHWKEQRAAQKADVLTTGAGNPVGDKLNVITVGPRGPLLVQDVVFTDEMAHFDRERIPERVVHAKGAGAFGYFEVTHDITKYSKAKVFEHIGKKTPIAVRFSTVAGESGSADTVRDPRGFAVKFYTEDGNWDLVGNNTPIFFIRDPILFPSFIHSQKRNPQTHLKDPDMVWDFWSLRPESLHQVSFLFSDRGIPDGHRHMNGYGSHTFKLVNANGEAVYCKFHYKTDQGIKNLSVEDAARLSQEDPDYGIRDLFNAIATGKYPSWTFYIQVMTFNQAETFPFNPFDLTKVWPHKDYPLIPVGKLVLNRNPVNYFAEVEQIAFDPSNMPPGIEASPDKMLQGRLFAYPDTHRHRLGPNYLHIPVNCPYRARVANYQRDGPMCMQDNQGGAPNYYPNSFGAPEQQPSALEHSIQYSGEVRRFNTANDDNVTQVRAFYVNVLNEEQRKRLCENIAGHLKDAQIFIQKKAVKNFTEVHPDYGSHIQALLDKYNAEKPKNAIHTFVQSGSHLAAREKANL | 0 | 3 | 6 | 2 |  |  |  |  |
| C1orf68 (protein) MCDQQKQPQFPPSCVKGSGLGAGQGSNGASVKCPVPCQTQTVCVTGPAPCPTQTYVKYQVPCQTQTYVKCPAPCQRTYVKYPTPCQTYVKCPAPCQTTYVKCPTPCQTYVKCPAPCQMTYIKSPAPCQTQTCYVQGASPCQSYYVQAPASGSTSQYCVTDPCSAPCSTSYCCLAPRTFGVSPLRRWIQRPQNCNTGSSGCCENSGSSGCCGSGGCGCSCGCGSSGCCCLGIIPMRSRGPACCDHEDDCCC | 2 | 4 | 13 | 0 |  |  |  |  |
| COPA (protein) MLTKFETKSARVKGLSFHPKRPWILTSLHNGVIQLWDYRMCTLIDKFDEHDGPVRGIDFHKQQPLFVSGGDDYKIKVWNYKLRRCLFTLLGHLDYIRTTFFHHEYPWILSASDDQTIRVWNWQSRTCVCVLTGHNHYVMCAQFHPTEDLVVSASLDQTVRVWDISGLRKKNLSPGAVESDVRGITGVDLFGTTDAVVKHVLEGHDRGVNWAAFHPTMPLIVSGADDRQVKIWRMNESKAWEVDTCRGHYNNVSCAVFHPRQELILSNSEDKSIRVWDMSKRTGVQTFRRDHDRFWVLAAHPNLNLFAAGHDGGMIVFKLERERPAYAVHGNMLHYVKDRFLRQLDFNSSKDVAVMQLRSGSKFPVFNMSYNPAENAVLLCTRASNLENSTYDLYTIPKDADSQNPDAPEGKRSSGLTAVWVARNRFAVLDRMHSLLIKNLKNEITKKVQVPNCDEIFYAGTGNLLLRDADSITLFDVQQKRTLASVKISKVKYVIWSADMSHVALLAKHAIVICNRKLDALCNIHENIRVKSGAWDESGVFIYTTSNHIKYAVTTGDHGIIRTLDLPIYVTRVKGNNVYCLDRECRPRVLTIDPTEFKFKLALINRKYDEVLHMVRNAKLVGQSIIAYLQKKGYPEVALHFVKDEKTRFSLALECGNIEIALEAAKALDDKNCWEKLGEVALLQGNHQIVEMCYQRTKNFDKLSFLYLITGNLEKLRKMMKIAEIRKDMSGHYQNALYLGDVSERVRILKNCGQKSLAYLTAATHGLDEEAESLKETFDPEKETIPDIDPNAKLLQPPAPIMPLDTNWPLLTVSKGFFEGTIASKGKGGALAADIDIDTVGTEGWGEDAELQLDEDGFVEATEGLGDDALGKGQEEGGGWDVEEDLELPPELDISPGAAGGAEDGFFVPPTKGTSPTQIWCNNSQLPVDHILAGSFETAMRLLHDQVGVIQFGPYKQLFLQTYARGRTTYQALPCLPSMYGYPNRNWKDAGLKNGVPAVGLKLNDLIQRLQLCYQLTTVGKFEEAVEKFRSILLSVPLLVVDNKQEIAEAQQLITICREYIVGLSVETERKKLPKETLEQQKRICEMAAYFTHSNLQPVHMILVLRTALNLFFKLKNFKTAATFARRLLELGPKPEVAQQTRKILSACEKNPTDAYQLNYDMHNPFDICAASYRPIYRGKPVEKCPLSGACYSPEFKGQICRVTTVTEIGKDVIGLRISPLQFR | 2 | 0 | 2 | 0 |  |  |  |  |
| KRT6B (protein) ASTSTTIRSHSSSRRGFSANSARLPGVSRSGFSSISVSRSRGSGGLGGACGGAGFGSRSLYGLGGSKRISIGGGSCAISGGYGSRAGGSYGFGGAGSGFGFGGGAGIGFGLGGGAGLAGGFGGPGFPVCPPGGIQEVTVNQSLLTPLNLQIDPAIQRVRAEEREQIKTLNNKFASFIDKVRFLEQQNKVLDTKWTLLQEQGTKTVRQNLEPLFEQYINNLRRQLDNIVGERGRLDSELRNMQDLVEDLKNKYEDEINKRTAAENEFVTLKKDVDAAYMNKVELQAKADTLTDEINFLRALYDAELSQMQTHISDTSVVLSMDNNRNLDLDSIIAEVKAQYEEIAQRSRAEAESWYQTKYEELQITAGRHGDDLRNTKQEIAEINRMIQRLRSEIDHVKKQCANLQAAIADAEQRGEMALKDAKNKLEGLEDALQKAKQDLARLLKEYQELMNVKLALDVEIATYRKLLEGEECRLNGEGVGQVNISVVQSTVSSGYGGASGVGSGLGLGGGSSYSYGSGLGVGGGFSSSSGRATGGGLSSVGGGSSTIKYTTTSSSSRKSYKH | 331 | 295 | 370 | 316 |  |  |  |  |
